Results: IntAct's records for PubMed 25910212

B1: U4/U6 small nuclear ribonucleoprotein Prp31 (Homo sapiens), Q8WWY3 (parent)
chain: MSLADELLADLEEAAEEEEGGSYGEEEEEPAIEDVQEETQLDLSGDSVKTIAKLWDSKMFAEIMMKIEEYISKQAKASEVMGPVEAAPEYRVIVDANNLTVEIENELNIIHKFIRDKYSKRFPELESLVPNALDYIRTVKELGNSLDKCKNNENLQQILTNATIMVVSVTASTTQGQQLSEEELERLEEACDMALELNASKHRIYEYVESRMSFIAPNLSIIIGASTAAKIMGVAGGLTNLSKMPACNIMLLGAQRKTLSGFSSTSVLPHTGYIYHSDIVQSLPPDLRRKAARLVAAKCTLAARVDSFHESTEGKVGYELKDEIERKFDKWQEPPPVKQVKPLPAPLDGQRKKRGGRRYRKMKERLGLTEIRKQANRMSFGEIEEDAYQEDLGFSLGHLGKSGSGRVRQTQVNEATKARISKTLQRTLQKQSVVYGGKSTIRDRSSGTASSVAFTPLQGLEIVNPQAAEKKVAEANQKYFSSMAEFLKVKGEKSGLMST
partner: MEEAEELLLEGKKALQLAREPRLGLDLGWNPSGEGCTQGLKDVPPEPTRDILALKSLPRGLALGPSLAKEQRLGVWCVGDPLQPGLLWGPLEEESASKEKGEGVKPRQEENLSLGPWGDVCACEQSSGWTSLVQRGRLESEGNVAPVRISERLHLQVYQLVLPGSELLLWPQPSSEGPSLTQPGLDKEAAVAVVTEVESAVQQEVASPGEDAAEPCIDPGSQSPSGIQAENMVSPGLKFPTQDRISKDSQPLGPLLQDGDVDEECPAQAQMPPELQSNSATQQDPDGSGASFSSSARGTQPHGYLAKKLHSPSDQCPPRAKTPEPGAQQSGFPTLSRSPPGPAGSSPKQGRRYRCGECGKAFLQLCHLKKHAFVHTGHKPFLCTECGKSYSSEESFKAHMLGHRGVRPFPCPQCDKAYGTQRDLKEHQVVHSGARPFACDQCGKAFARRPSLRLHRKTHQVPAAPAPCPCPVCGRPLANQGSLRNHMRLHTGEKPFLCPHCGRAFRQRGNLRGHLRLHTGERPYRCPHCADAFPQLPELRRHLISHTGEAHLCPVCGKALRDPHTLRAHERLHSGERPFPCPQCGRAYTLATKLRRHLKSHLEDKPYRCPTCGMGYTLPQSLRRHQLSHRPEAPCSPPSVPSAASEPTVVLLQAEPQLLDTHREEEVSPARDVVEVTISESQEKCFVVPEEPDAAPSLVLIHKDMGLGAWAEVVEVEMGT
B2: Glycogen phosphorylase, liver form (Homo sapiens), P06737 (parent)
chain: MAKPLTDQEKRRQISIRGIVGVENVAELKKSFNRHLHFTLVKDRNVATTRDYYFALAHTVRDHLVGRWIRTQQHYYDKCPKRVYYLSLEFYMGRTLQNTMINLGLQNACDEAIYQLGLDIEELEEIEEDAGLGNGGLGRLAACFLDSMATLGLAAYGYGIRYEYGIFNQKIRDGWQVEEADDWLRYGNPWEKSRPEFMLPVHFYGKVEHTNTGTKWIDTQVVLALPYDTPVPGYMNNTVNTMRLWSARAPNDFNLRDFNVGDYIQAVLDRNLAENISRVLYPNDNFFEGKELRLKQEYFVVAATLQDIIRRFKASKFGSTRGAGTVFDAFPDQVAIQLNDTHPALAIPELMRIFVDIEKLPWSKAWELTQKTFAYTNHTVLPEALERWPVDLVEKLLPRHLEIIYEINQKHLDRIVALFPKDVDRLRRMSLIEEEGSKRINMAHLCIVGSHAVNGVAKIHSDIVKTKVFKDFSELEPDKFQNKTNGITPRRWLLLCNPGLAELIAEKIGEDYVKDLSQLTKLHSFLGDDVFLRELAKVKQENKLKFSQFLETEYKVKINPSSMFDVQVKRIHEYKRQLLNCLHVITMYNRIKKDPKKLFVPRTVIIGGKAAPGYHMAKMIIKLITSVADVVNNDPMVGSKLKVIFLENYRVSLAEKVIPATDLSEQISTAGTEASGTGNMKFMLNGALTIGTMDGANVEMAEEAGEENLFIFGMRIDDVAALDKKGYEAKEYYEALPELKLVIDQIDNGFFSPKQPDLFKDIINMLFYHDRFKVFADYEAYVKCQDKVSQLYMNPKAWNTMVLKNIAASGKFSSDRTIKEYAQNIWNVEPSDLKISLSNESNKVNGN
partner: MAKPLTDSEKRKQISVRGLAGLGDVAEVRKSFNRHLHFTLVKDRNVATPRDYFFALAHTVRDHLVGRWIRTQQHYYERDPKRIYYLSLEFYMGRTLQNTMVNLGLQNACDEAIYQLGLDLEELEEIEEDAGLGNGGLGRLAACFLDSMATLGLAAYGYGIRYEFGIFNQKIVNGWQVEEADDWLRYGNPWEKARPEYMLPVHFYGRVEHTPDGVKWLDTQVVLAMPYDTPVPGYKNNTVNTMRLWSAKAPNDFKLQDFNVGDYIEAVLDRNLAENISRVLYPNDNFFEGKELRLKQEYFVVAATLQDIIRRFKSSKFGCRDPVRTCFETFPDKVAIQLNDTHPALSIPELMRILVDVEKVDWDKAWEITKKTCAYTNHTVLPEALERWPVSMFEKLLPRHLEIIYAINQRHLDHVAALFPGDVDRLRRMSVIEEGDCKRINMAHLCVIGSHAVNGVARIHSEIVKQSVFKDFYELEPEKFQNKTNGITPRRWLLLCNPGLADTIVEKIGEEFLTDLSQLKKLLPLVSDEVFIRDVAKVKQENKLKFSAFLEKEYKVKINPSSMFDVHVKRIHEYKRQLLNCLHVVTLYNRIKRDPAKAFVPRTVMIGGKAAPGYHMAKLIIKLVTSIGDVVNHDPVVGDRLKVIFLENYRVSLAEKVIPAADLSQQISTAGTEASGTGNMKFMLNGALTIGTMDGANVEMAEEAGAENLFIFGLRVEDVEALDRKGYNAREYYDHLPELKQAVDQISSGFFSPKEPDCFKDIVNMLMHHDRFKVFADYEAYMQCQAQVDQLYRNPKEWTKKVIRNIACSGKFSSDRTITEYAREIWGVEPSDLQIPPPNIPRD
B3: Multifunctional procollagen lysine hydroxylase and glycosyltransferase LH3 (Homo sapiens), O60568 (parent)
chain: MTSSGPGPRFLLLLPLLLPPAASASDRPRGRDPVNPEKLLVITVATAETEGYLRFLRSAEFFNYTVRTLGLGEEWRGGDVARTVGGGQKVRWLKKEMEKYADREDMIIMFVDSYDVILAGSPTELLKKFVQSGSRLLFSAESFCWPEWGLAEQYPEVGTGKRFLNSGGFIGFATTIHQIVRQWKYKDDDDDQLFYTRLYLDPGLREKLSLNLDHKSRIFQNLNGALDEVVLKFDRNRVRIRNVAYDTLPIVVHGNGPTKLQLNYLGNYVPNGWTPEGGCGFCNQDRRTLPGGQPPPRVFLAVFVEQPTPFLPRFLQRLLLLDYPPDRVTLFLHNNEVFHEPHIADSWPQLQDHFSAVKLVGPEEALSPGEARDMAMDLCRQDPECEFYFSLDADAVLTNLQTLRILIEENRKVIAPMLSRHGKLWSNFWGALSPDEYYARSEDYVELVQRKRVGVWNVPYISQAYVIRGDTLRMELPQRDVFSGSDTDPDMAFCKSFRDKGIFLHLSNQHEFGRLLATSRYDTEHLHPDLWQIFDNPVDWKEQYIHENYSRALEGEGIVEQPCPDVYWFPLLSEQMCDELVAEMEHYGQWSGGRHEDSRLAGGYENVPTVDIHMKQVGYEDQWLQLLRTYVGPMTESLFPGYHTKARAVMNFVVRYRPDEQPSLRPHHDSSTFTLNVALNHKGLDYEGGGCRFLRYDCVISSPRKGWALLHPGRLTHYHEGLPTTWGTRYIMVSFVDP
B4: Mothers against decapentaplegic homolog 3 (Homo sapiens), P84022 (parent)
chain: MSSILPFTPPIVKRLLGWKKGEQNGQEEKWCEKAVKSLVKKLKKTGQLDELEKAITTQNVNTKCITIPRSLDGRLQVSHRKGLPHVIYCRLWRWPDLHSHHELRAMELCEFAFNMKKDEVCVNPYHYQRVETPVLPPVLVPRHTEIPAEFPPLDDYSHSIPENTNFPAGIEPQSNIPETPPPGYLSEDGETSDHQMNHSMDAGSPNLSPNPMSPAHNNLDLQPVTYCEPAFWCSISYYELNQRVGETFHASQPSMTVDGFTDPSNSERFCLGLLSNVNRNAAVELTRRHIGRGVRLYYIGGEVFAECLSDSAIFVQSPNCNQRYGWHPATVCKIPPGCNLKIFNNQEFAALLAQSVNQGFEAVYQLTRMCTIRMSFVKGWGAEYRRQTVTSTPCWIELHLNGPLQWLDKVLTQMGSPSIRCSSVS
partner: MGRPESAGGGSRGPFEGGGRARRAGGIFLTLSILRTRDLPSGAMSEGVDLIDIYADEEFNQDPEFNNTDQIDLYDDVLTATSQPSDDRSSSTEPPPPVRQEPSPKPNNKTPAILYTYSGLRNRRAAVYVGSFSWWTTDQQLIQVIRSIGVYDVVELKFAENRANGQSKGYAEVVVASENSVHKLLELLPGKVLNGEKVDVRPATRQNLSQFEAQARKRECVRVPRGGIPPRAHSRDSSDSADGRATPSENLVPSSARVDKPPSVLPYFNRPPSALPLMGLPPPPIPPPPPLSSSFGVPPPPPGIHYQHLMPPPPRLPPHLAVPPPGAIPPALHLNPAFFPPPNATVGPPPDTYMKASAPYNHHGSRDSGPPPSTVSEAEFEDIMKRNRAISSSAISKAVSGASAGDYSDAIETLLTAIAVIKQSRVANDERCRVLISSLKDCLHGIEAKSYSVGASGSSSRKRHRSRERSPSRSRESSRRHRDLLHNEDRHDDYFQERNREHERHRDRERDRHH

Variants of: B1
Details: with zn408_human ZNF408, Q9H9D4
With MSLADELLADLEEAAEEEEGGSYGEEEEEPAIEDVQEETQLDLSGDSVKTIAKLWDSKMFAEIMMKIEEYISKQAKASEVMGPVEAAPEYRVIVDANNLTVEIENEVNIIHKFIRDKYSKRFPELESLVPNALDYIRTVKELGNSLDKCKNNENLQQILTNATIMVVSVTASTTQGQQLSEEELERLEEACDMALELNASKHRIYEYVESRMSFIAPNLSIIIGASTAAKIMGVAGGLTNLSKMPACNIMLLGAQRKTLSGFSSTSVLPHTGYIYHSDIVQSLPPDLRRKAARLVAAKCTLAARVDSFHESTEGKVGYELKDEIERKFDKWQEPPPVKQVKPLPAPLDGQRKKRGGRRYRKMKERLGLTEIRKQANRMSFGEIEEDAYQEDLGFSLGHLGKSGSGRVRQTQVNEATKARISKTLQRTLQKQSVVYGGKSTIRDRSSGTASSVAFTPLQGLEIVNPQAAEKKVAEANQKYFSSMAEFLKVKGEKSGLMST [L107V] the “effect of a mutation on the interaction” value was “with no effect”.

Variants of: B2
Details: with pygb_human PYGB
In the case of N339S, the “effect of a mutation on the interaction” value is reported as “with no effect”. With N377K the “effect of a mutation on the interaction” value was “with no effect”.

Variants of: B3
Details: with ehmt2_human EHMT2, Q96KQ7
Chain of ehmt2_human EHMT2, Q96KQ7 (Q96KQ7 whole entry): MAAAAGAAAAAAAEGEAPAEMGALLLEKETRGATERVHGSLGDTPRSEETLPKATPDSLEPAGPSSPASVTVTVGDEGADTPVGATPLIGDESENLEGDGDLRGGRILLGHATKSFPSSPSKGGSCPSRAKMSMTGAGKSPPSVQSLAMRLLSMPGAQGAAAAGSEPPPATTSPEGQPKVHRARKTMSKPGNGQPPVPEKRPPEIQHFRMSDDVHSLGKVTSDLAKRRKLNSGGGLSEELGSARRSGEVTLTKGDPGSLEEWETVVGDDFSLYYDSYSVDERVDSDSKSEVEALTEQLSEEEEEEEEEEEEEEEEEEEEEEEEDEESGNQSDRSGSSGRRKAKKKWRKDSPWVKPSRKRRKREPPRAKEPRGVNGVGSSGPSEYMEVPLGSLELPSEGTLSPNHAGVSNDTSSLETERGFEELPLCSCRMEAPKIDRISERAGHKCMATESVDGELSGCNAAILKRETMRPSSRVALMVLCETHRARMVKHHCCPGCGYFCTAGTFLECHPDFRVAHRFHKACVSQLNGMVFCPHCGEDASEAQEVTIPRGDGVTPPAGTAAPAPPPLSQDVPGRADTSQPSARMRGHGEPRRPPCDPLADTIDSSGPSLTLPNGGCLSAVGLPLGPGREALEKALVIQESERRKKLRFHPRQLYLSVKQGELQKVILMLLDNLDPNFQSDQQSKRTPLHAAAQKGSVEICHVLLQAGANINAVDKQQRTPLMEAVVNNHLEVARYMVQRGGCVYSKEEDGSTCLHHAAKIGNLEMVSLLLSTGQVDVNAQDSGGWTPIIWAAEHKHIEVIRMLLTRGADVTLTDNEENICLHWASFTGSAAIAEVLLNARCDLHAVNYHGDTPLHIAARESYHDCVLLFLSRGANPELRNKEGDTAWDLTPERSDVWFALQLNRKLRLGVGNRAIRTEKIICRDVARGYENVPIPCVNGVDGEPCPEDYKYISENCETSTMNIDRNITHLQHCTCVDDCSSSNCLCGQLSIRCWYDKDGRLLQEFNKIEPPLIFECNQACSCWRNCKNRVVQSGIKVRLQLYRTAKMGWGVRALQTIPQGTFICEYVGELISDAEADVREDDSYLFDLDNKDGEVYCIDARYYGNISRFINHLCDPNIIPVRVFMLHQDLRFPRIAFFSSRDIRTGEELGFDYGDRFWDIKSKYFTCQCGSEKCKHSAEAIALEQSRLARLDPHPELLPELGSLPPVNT
For N223S, the “effect of a mutation on the interaction” value was “with no effect”.

Variants of: B4
Details: with CPSF7, Q8N684-3
In the case of I170V, the “effect of a mutation on the interaction” value is reported as “with no effect”. In the case of N197I, the “effect of a mutation on the interaction” value is reported as “with no effect”.
